For 1 molecule, inhibition of Aβ fibril formation (THT fluorescence), antibody 1.3 µM results are on record in patent US20120039897A1.

In the test the target is Aβ(1-40) peptide. The test is described as follows: cell-based or functional assay.
Aβ(1-40) peptide, sequence (peptide, as listed by the source): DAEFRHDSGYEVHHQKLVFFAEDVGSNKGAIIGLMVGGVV

B1: ACA (control antibody; humanized 266 antibody, U.S. Pat. No. 7,195,761 B2) (antibody, INN chains, looked up, V domains shown)
VH: EVQLVESGGGLVQPGGSLRLSCAASGFTFSRYSMSWVRQAPGKGLELVAQINSVGNSTYYPDTVKGRFTISRDNAKNTLYLQMNSLRAEDTAVYYCASGDYWGQGTLVTVSS
VL: DVVMTQSPLSLPVTLGQPASISCRSSQSLIYSDGNAYLHWFLQKPGQSPRLLIYKVSNRFSGVPDRFSGSGSGTDFTLKISRVEAEDVGVYYCSQSTHVPWTFGQGTKVEIK
In turn, B1 had an inhibition of Aβ fibril formation (THT fluorescence), antibody 1.3 µM of 20%.
